The chains are these.
B1: His-TFIIEβ/WT [not stated] / Flag-TFIIEα [not stated] (parent)
chain 1: MDPSLLRERELFKKRALSTPVVEKRSASSESSSSSSKKKKTKVEHGGSSGSKQNSDHSNGSFNLKALSGSSGYKFGVLAKIVNYMKTRHQRGDTHPLTLDEILDETQHLDIGLKQKQWLMTEALVNNPKIEVIDGKYAFKPKYNVRDKKALLRLLDQHDQRGLGGILLEDIEEALPNSQKAVKALGDQILFVNRPDKKKILFFNDKSCQFSVDEEFQKLWRSVTVDSMDEEKIEEYLKRQGISSMQESGPKKVAPIQRRKKPASQKKRRFKTHNEHLAGVLKDYSDITSSK
chain 2: MADPDVLTEVPAALKRLAKYVIRGFYGIEHALALDILIRNSCVKEEDMLELLKFDRKQLRSVLNNLKGDKFIKCRMRVETAADGKTTRHNYYFINYRTLVNVVKYKLDHMRRRIETDERDSTNRASFKCPVCSSTFTDLEANQLFDPMTGTFRCTFCHTEVEEDESAMPKKDARTLLARFNEQIEPIYALLRETEDVNLAYEILEPEPTEIPALKQSKDHAATTAGAASLAGGHHREAWATKGPSYEDLYTQNVVINMDDQEDLHRASLEGKSAKERPIWLRESTVQGAYGSEDMKEGGIDMDAFQEREEGHAGPDDNEEVMRALLIHEKKTSSAMAGSVGAAAPVTAANGSDSESETSESDDDSPPRPAAVAVHKREEDEEEDDEFEEVADDPIVMVAGRPFSYSEVSQRPELVAQMTPEEKEAYIAMGQRMFEDLFE

Variants of B1 are the subject of this assay. Put plainly: co-immunoprecipitation (IP of IIEα), immunoblot quantified. The conditions noted are these: with Flag-TFIIEα, n = 3, means ± s.d., read off a plot.

chain 1 A150P: the screen value (150 mM KCl) stood at 0.78 a.u and the screen value (500 mM KCl) amounted to 0.67 a.u.

Turning to chain 1 D187Y, the screen value by setting is: (150 mM KCl) 0.85 a.u; (500 mM KCl) 0.45 a.u.
